Values quoted from earlier work as cited in publication PMC3433420.
Like-named read-outs stand apart in the source and are kept apart here.

Key:
Conditions in all cases: cited from earlier work
SYK-NC (Homo sapiens) [1] = target: SYK-NC (Homo sapiens) (UniProt P43405)
GRB7 (Homo sapiens) [2] = target: GRB7 (Homo sapiens) (UniProt Q14451)
PIK3R1-N (Homo sapiens) = PIK3R1-N (Homo sapiens) (UniProt P27986)
SLA (Homo sapiens) [3] = target: SLA (Homo sapiens) (UniProt Q13239)
ABL2 (Homo sapiens) [4] = target: ABL2 (Homo sapiens) (UniProt P42684)
PIK3R3-NC (Homo sapiens) [5] = target: PIK3R3-NC (Homo sapiens) (UniProt Q92569)
PIK3R3-NC (Homo sapiens) [6] = target: PIK3R3-NC (Homo sapiens) (UniProt Q92569); remark: listed apart in the source
RASA1-N (Homo sapiens) [7] = target: RASA1-N (Homo sapiens) (UniProt P20936)
TENC1 (Homo sapiens) [8] = target: TENC1 (Homo sapiens) (UniProt Q63HR2)
TENC1 (Homo sapiens) [9] = target: TENC1 (Homo sapiens) (UniProt Q63HR2); remark: listed apart in the source
PIK3R1-NC (Homo sapiens) [10] = target: PIK3R1-NC (Homo sapiens) (UniProt P27986)
PIK3R1-NC (Homo sapiens) [11] = target: PIK3R1-NC (Homo sapiens) (UniProt P27986); remark: listed apart in the source
PIK3R3-N (Homo sapiens) [12] = target: PIK3R3-N (Homo sapiens) (UniProt Q92569)
PIK3R3-N (Homo sapiens) [13] = target: PIK3R3-N (Homo sapiens) (UniProt Q92569); remark: listed apart in the source
PIK3R2-NC (Homo sapiens) = PIK3R2-NC (Homo sapiens) (UniProt O00459)
PIK3R2-N (Homo sapiens) [14] = target: PIK3R2-N (Homo sapiens) (UniProt O00459)
PIK3R2-N (Homo sapiens) [15] = target: PIK3R2-N (Homo sapiens) (UniProt O00459); remark: listed apart in the source
PIK3R3-C (Homo sapiens) = PIK3R3-C (Homo sapiens) (UniProt Q92569)
SYK-NC (Homo sapiens) [16] = target: SYK-NC (Homo sapiens) (UniProt P43405); remark: listed apart in the source
GRB7 (Homo sapiens) [17] = target: GRB7 (Homo sapiens) (UniProt Q14451); remark: listed apart in the source
SLA (Homo sapiens) [18] = target: SLA (Homo sapiens) (UniProt Q13239); remark: listed apart in the source
BLK (Homo sapiens) = BLK (Homo sapiens) (UniProt P51451)
ITK (Homo sapiens) = ITK (Homo sapiens) (UniProt Q08881)
ABL2 (Homo sapiens) [19] = target: ABL2 (Homo sapiens) (UniProt P42684); remark: listed apart in the source
ABL2 (Homo sapiens) [20] = target: ABL2 (Homo sapiens) (UniProt P42684); remark: listed apart in the source
TNS4 (Homo sapiens) = TNS4 (Homo sapiens) (UniProt Q8IZW8)
SH2B3 (Homo sapiens) = SH2B3 (Homo sapiens) (UniProt Q9UQQ2)
PLCG2-NC (Homo sapiens) [21] = target: PLCG2-NC (Homo sapiens) (UniProt P16885)
PLCG2-NC (Homo sapiens) [22] = target: PLCG2-NC (Homo sapiens) (UniProt P16885); remark: listed apart in the source
PIK3R3-NC (Homo sapiens) [23] = target: PIK3R3-NC (Homo sapiens) (UniProt Q92569); remark: listed apart in the source
SOCS2 (Homo sapiens) = SOCS2 (Homo sapiens) (UniProt O14508)
RASA1-N (Homo sapiens) [24] = target: RASA1-N (Homo sapiens) (UniProt P20936); remark: listed apart in the source
RASA1-N (Homo sapiens) [25] = target: RASA1-N (Homo sapiens) (UniProt P20936); remark: listed apart in the source
SOCS1 (Homo sapiens) = SOCS1 (Homo sapiens) (UniProt O15524)
SH2D2A (Homo sapiens) = SH2D2A (Homo sapiens) (UniProt Q9NP31)
ZAP70-NC (Homo sapiens) = ZAP70-NC (Homo sapiens) (UniProt P43403)
SH2B (Homo sapiens) = SH2B (Homo sapiens) (UniProt Q9NRF2)
PIK3R1-NC (Homo sapiens) [26] = target: PIK3R1-NC (Homo sapiens) (UniProt P27986); remark: listed apart in the source
GRB10 (Homo sapiens) [27] = target: GRB10 (Homo sapiens) (UniProt Q13322)
GRB10 (Homo sapiens) [28] = target: GRB10 (Homo sapiens) (UniProt Q13322); remark: listed apart in the source
FES (Homo sapiens) = FES (Homo sapiens) (UniProt P07332)
SRC (Homo sapiens) = SRC (Homo sapiens) (UniProt P12931)
PTPN6-NC (Homo sapiens) = PTPN6-NC (Homo sapiens) (UniProt P29350)
SHC1-PTB (Homo sapiens) = SHC1-PTB (Homo sapiens) (UniProt P29353)
YES1 (Homo sapiens) = YES1 (Homo sapiens) (UniProt P07947)
SHC2-PTB (Homo sapiens) = SHC2-PTB (Homo sapiens) (UniProt P98077)
SH2D3C (Homo sapiens) = SH2D3C (Homo sapiens) (UniProt Q8N5H7)
RASA1-NC (Homo sapiens) [29] = target: RASA1-NC (Homo sapiens) (UniProt P20936)
RASA1-NC (Homo sapiens) [30] = target: RASA1-NC (Homo sapiens) (UniProt P20936); remark: listed apart in the source
LCK (Homo sapiens) = LCK (Homo sapiens) (UniProt P06239)
Sequence of LCK (Homo sapiens) (P06239 122-229): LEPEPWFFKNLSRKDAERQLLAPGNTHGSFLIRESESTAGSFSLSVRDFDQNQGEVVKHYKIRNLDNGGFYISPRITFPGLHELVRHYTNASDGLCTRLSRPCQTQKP

Sequence of ABL2 (Homo sapiens) (P42684 168-268): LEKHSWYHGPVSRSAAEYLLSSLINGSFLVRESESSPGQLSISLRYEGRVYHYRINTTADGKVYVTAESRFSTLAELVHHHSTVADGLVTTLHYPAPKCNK
Sequence of RASA1-N (Homo sapiens) (P20936 176-446): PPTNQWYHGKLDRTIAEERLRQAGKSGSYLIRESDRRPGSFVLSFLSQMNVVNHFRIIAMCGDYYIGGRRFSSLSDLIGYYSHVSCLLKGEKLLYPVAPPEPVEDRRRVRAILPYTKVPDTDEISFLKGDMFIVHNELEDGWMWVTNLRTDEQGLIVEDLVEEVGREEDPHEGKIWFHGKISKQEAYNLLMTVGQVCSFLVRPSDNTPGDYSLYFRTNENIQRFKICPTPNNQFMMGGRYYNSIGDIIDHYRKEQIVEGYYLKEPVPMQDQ
Sequence of PIK3R1-NC (Homo sapiens) (P27986 328-723): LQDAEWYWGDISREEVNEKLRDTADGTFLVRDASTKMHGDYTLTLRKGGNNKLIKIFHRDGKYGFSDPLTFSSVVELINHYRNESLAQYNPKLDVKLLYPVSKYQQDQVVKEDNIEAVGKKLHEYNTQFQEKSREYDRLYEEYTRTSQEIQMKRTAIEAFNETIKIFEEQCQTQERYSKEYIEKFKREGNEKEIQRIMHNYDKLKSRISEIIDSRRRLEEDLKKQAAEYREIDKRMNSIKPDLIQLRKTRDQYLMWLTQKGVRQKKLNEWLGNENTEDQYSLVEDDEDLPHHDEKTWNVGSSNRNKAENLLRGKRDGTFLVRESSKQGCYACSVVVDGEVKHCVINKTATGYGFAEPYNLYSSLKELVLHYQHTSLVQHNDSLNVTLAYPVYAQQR
Sequence of GRB7 (Homo sapiens) (Q14451 426-532): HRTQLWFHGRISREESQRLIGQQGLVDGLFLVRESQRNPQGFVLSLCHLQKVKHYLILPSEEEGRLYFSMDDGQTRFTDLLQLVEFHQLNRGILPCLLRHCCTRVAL
Sequence of RASA1-NC (Homo sapiens) (P20936 176-446): as the sequence (P20936 176-446) above
Sequence of PLCG2-NC (Homo sapiens) (P16885 527-740): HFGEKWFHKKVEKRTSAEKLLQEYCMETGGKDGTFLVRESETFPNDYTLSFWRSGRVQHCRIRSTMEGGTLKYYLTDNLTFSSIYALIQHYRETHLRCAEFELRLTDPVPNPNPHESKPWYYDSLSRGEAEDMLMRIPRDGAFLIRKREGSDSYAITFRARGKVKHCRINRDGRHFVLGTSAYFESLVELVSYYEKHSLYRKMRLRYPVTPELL
Sequence of TENC1 (Homo sapiens) (Q63HR2 1135-1252): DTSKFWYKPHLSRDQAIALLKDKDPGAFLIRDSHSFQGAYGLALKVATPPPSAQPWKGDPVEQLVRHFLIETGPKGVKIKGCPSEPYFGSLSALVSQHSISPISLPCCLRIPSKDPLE
Sequence of PIK3R2-N (Homo sapiens) (O00459 325-721): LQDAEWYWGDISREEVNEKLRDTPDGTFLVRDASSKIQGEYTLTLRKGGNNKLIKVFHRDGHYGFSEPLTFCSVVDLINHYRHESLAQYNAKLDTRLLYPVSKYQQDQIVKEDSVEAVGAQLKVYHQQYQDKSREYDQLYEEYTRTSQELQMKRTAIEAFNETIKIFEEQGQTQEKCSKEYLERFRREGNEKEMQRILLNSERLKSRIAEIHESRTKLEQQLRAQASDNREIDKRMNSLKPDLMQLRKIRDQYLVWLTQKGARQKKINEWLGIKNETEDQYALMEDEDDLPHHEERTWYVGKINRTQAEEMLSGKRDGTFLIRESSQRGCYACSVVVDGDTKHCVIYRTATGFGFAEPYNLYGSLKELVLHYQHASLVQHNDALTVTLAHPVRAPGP
Sequence of GRB10 (Homo sapiens) (Q13322 488-579): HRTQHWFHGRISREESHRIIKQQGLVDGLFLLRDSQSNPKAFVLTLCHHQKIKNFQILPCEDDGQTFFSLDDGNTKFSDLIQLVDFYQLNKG
Sequence of SLA (Homo sapiens) (Q13239 79-180): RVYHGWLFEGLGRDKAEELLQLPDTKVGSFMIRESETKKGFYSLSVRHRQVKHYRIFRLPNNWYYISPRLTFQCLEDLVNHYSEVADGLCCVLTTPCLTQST
Sequence of ITK (Homo sapiens) (Q08881 234-343): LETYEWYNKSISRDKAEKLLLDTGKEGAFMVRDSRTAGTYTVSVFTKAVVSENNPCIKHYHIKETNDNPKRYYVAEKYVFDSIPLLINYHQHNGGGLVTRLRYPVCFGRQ
Sequence of SOCS1 (Homo sapiens) (O15524 74-179): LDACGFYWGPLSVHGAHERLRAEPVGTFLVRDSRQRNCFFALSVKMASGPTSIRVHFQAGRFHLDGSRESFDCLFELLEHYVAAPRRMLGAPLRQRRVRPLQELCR
Sequence of SOCS2 (Homo sapiens) (O14508 43-161): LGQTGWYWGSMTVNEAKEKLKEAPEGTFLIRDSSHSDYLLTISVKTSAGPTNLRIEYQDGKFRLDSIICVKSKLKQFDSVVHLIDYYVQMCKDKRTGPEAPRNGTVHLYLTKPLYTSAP
Sequence of SH2B3 (Homo sapiens) (Q9UQQ2 359-467): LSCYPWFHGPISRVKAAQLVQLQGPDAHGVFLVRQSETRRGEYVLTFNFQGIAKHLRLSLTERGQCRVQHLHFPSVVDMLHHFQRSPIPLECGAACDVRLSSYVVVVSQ
Sequence of SHC2-PTB (Homo sapiens) (P98077 482-582): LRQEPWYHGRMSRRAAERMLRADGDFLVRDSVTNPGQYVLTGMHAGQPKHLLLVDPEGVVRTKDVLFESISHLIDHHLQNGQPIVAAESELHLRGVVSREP
Sequence of SH2D2A (Homo sapiens) (Q9NP31 90-191): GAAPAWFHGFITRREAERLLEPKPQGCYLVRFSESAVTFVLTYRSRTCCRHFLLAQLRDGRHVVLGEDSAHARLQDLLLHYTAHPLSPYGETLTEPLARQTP
Sequence of PIK3R2-NC (Homo sapiens) (O00459 325-721): as the sequence (O00459 325-721) above
Sequence of SHC1-PTB (Homo sapiens) (P29353 483-583): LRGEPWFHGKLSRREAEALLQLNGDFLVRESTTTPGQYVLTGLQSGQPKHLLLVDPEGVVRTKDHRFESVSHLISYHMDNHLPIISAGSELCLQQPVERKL

…pYEYMNRQR
apparent Kd (screen) (SYK-NC (Homo sapiens) [1]): 1.3 µM
apparent Kd (screen) (GRB7 (Homo sapiens) [2]): 0.999 µM
apparent Kd (screen) (PIK3R1-N (Homo sapiens)): 0.296 µM
apparent Kd (screen) (SLA (Homo sapiens) [3]): 2 µM
apparent Kd (screen) (ABL2 (Homo sapiens) [4]): 0.357 µM
apparent Kd (screen) (PIK3R3-NC (Homo sapiens) [5]): 0.151 µM
apparent Kd (screen) (PIK3R3-NC (Homo sapiens) [6]): 0.122 µM
apparent Kd (screen) (RASA1-N (Homo sapiens) [7]): 1.04 µM
apparent Kd (screen) (TENC1 (Homo sapiens) [8]): 1.71 µM
apparent Kd (screen) (TENC1 (Homo sapiens) [9]): 1.62 µM
apparent Kd (screen) (PIK3R1-NC (Homo sapiens) [10]): 0.033 µM
apparent Kd (screen) (PIK3R1-NC (Homo sapiens) [11]): 0.043 µM
apparent Kd (screen) (PIK3R3-N (Homo sapiens) [12]): 0.157 µM
apparent Kd (screen) (PIK3R3-N (Homo sapiens) [13]): 0.171 µM
apparent Kd (screen) (PIK3R2-NC (Homo sapiens)): 0.099 µM
apparent Kd (screen) (PIK3R2-N (Homo sapiens) [14]): 0.151 µM
apparent Kd (screen) (PIK3R2-N (Homo sapiens) [15]): 0.199 µM
apparent Kd (screen) (PIK3R3-C (Homo sapiens)): 0.13 µM

…pYRALMDEEd
apparent Kd (screen) (SYK-NC (Homo sapiens) [16]): 0.905 µM
apparent Kd (screen) (GRB7 (Homo sapiens) [17]): 0.755 µM
apparent Kd (screen) (SLA (Homo sapiens) [18]): 1.6 µM
apparent Kd (screen) (BLK (Homo sapiens)): 0.191 µM
apparent Kd (screen) (ITK (Homo sapiens)): 0.277 µM
apparent Kd (screen) (ABL2 (Homo sapiens) [19]): 1.5 µM
apparent Kd (screen) (ABL2 (Homo sapiens) [20]): 2 µM
apparent Kd (screen) (TNS4 (Homo sapiens)): 2 µM
apparent Kd (screen) (SH2B3 (Homo sapiens)): 1.36 µM
apparent Kd (screen) (PLCG2-NC (Homo sapiens) [21]): 1.39 µM
apparent Kd (screen) (PLCG2-NC (Homo sapiens) [22]): 1.5 µM
apparent Kd (screen) (PIK3R3-NC (Homo sapiens) [23]): 0.968 µM
apparent Kd (screen) (SOCS2 (Homo sapiens)): 2 µM
apparent Kd (screen) (RASA1-N (Homo sapiens) [24]): 0.709 µM
apparent Kd (screen) (RASA1-N (Homo sapiens) [25]): 1.06 µM
apparent Kd (screen) (SOCS1 (Homo sapiens)): 2 µM
apparent Kd (screen) (SH2D2A (Homo sapiens)): 2 µM
apparent Kd (screen) (ZAP70-NC (Homo sapiens)): 1.65 µM
apparent Kd (screen) (SH2B (Homo sapiens)): 2 µM
apparent Kd (screen) (PIK3R1-NC (Homo sapiens) [26]): 0.239 µM
apparent Kd (screen) (GRB10 (Homo sapiens) [27]): 1.69 µM
apparent Kd (screen) (GRB10 (Homo sapiens) [28]): 2 µM
apparent Kd (screen) (FES (Homo sapiens)): 1.23 µM
apparent Kd (screen) (SRC (Homo sapiens)): 1.14 µM
apparent Kd (screen) (PTPN6-NC (Homo sapiens)): 2 µM
apparent Kd (screen) (SHC1-PTB (Homo sapiens)): 1.15 µM
apparent Kd (screen) (YES1 (Homo sapiens)): 0.724 µM
apparent Kd (screen) (SHC2-PTB (Homo sapiens)): 0.978 µM
apparent Kd (screen) (SH2D3C (Homo sapiens)): 2 µM
apparent Kd (screen) (RASA1-NC (Homo sapiens) [29]): 1.65 µM
apparent Kd (screen) (RASA1-NC (Homo sapiens) [30]): 1.38 µM
apparent Kd (screen) (LCK (Homo sapiens)): 2 µM
